Data on 1 molecule can be found in paper PMC2831328.

For orientation: Ki means the dissociation constant of the complex between target and ligand, obtained from inhibition or displacement. Lower therefore signals higher affinity.

The target of the series is HCV NS3 helicase (WT) (Hepatitis C virus (subgenomic replicon …, UniProt Q9WMX2 1027-1657)). Kind of series: competition.
Sequence of HCV NS3 helicase (WT) (Hepatitis C virus (Q9WMX2 1027-1657): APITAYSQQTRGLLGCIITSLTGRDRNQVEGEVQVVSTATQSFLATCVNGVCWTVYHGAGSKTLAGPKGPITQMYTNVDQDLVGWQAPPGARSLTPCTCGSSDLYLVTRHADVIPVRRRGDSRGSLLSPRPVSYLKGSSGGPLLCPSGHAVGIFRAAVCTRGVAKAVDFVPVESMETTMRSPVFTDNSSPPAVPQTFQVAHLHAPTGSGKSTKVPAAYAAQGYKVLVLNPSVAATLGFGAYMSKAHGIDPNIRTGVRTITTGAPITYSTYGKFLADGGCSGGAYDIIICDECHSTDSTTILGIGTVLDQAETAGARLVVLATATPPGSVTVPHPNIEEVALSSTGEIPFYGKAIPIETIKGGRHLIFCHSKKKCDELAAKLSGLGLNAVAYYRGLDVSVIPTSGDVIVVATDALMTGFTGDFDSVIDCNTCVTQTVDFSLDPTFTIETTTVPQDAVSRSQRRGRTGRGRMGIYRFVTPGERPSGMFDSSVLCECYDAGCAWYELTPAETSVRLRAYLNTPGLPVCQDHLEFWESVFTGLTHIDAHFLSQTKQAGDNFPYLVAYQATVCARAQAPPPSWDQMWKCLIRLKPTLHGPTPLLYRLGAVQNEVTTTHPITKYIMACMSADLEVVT

B1: ds9 (competitor duplex) (dsRNA)
RNA 1: GCCGCCCGG
RNA 2: CCGGGCGGC
For B1, the Ki is 90 ± 20 nM.
